From patent US7101851 (dated 2006)
Bridges are numbered along the chain shown (N, C = ends). Where no end group is shown, it is not given here.

T1: alpha subunit of the human FcεRI receptor (IgE high affinity receptor), expressed on Chinese hamster ovary … (human, UniProt P12319 26-257)
T1 construct: whole, on cells; also called CHO FcεRI+ cells; FcεRIα
T1 sequence (looked up): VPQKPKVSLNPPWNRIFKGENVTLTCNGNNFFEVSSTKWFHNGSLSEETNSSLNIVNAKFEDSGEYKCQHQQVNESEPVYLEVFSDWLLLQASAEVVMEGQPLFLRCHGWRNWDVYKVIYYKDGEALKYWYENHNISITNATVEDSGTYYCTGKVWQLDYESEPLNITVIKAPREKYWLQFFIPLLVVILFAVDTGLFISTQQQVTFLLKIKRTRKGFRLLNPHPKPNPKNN


Target: T1, alpha subunit of the human FcεRI …
Experiment: inhibition of 125I-IgE binding to CHO cells expressing human FcεRI alpha; competitor IgE
Procedure: To determine the ability of peptides to inhibit IgE binding to FcεRI, a cell-based binding assay was used with radiolabeled IgE. Chinese hamster ovary cells expressing the alpha subunit of the human FcεRI receptor were cultured overnight in Falcon 96 well microtiter plates at a concentration of 5 ×10^4 cells per well. The following day the cells were rinsed three times with PBS and then once with F12/DMEM. Peptide stocks were reconstituted in 100 mM Hepes buffered water, pH 7.2, at a concentration of 5 mg/mL. Working concentrations of the peptide were diluted in assay buffer (see below). 75 uL of a desired concentration of peptide was added to the top row of a separate 96 well microtiter plate and serially diluted 1:3 in 50 uL of the assay buffer (F12/DMEM, 1% BSA, 0.05% NaN_3 and 0.025 mM Hepes pH 7.2). Starting concentrations ranged from 50–500 uM. Next, 50 uL of the diluted peptide was transferred to the 96 microtiter well plate containing a monolayer of CHO FcεRI+ cells. […] Cells were […]

Binder	IC50
VQCPHFCYVGGHALCPDVCYVGR (not fully specified (bridges); cysteine pairing not given here, produced as Z-domain fusion in E. coli and released with trypsin) [IGE132]	80 nM
VQCAHFCYVGGHALCPDVCYVGR (disulfide (positions not given here), produced as Z-domain fusion in E. coli and released with trypsin) [IGE142]	1000 nM
VQCPDFCYVGGHALCPDVCYVGR (not fully specified; cysteine pairing not given here, produced as Z-domain fusion in E. coli and released with trypsin) [IGE145]	117 nM
VQCPHFCYFGGAELCPDVCYV-NH2 (cysteine pairing not given here) [IGE135]	47 nM
VQCPDFCYFGGAELCPDVCYV-NH2 (not fully specified (bridges); cysteine pairing not given here) [IGE191]	210 nM
VQCPHFCYFGGAELCPGVCYV-NH2 (cysteine pairing not given here) [IGE136]	119 nM
NGCPGWCYVGGKALCPDVCYV-NH2 (disulfide 7-15, 3-19; N-terminus assumed; SMILES CC(C)C[C@@H]1NC(=O)[C@H](C)NC(=O)[C@H](CCCCN)NC(=O)CNC(=O)CNC(=O)[C@H](C(C)C)NC(=O)[C@H](Cc2ccc(O)cc2)NC(=O)[C@@H]2CSSC[C@H](NC1=O)C(=O)N1CCC[C@H]1C(=O)N[C@@H](CC(=O)O)C(=O)N[C@@H](C(C)C)C(=O)N[C@H](C(=O)N[C@@H](Cc1ccc(O)cc1)C(=O)N[C@H](C(N)=O)C(C)C)CSSC[C@H](NC(=O)CNC(=O)[C@@H](N)CC(N)=O)C(=O)N1CCC[C@H]1C(=O)NCC(=O)N[C@@H](Cc1c[nH]c3ccccc13)C(=O)N2) [IGE119]	1400 nM
KSCPLWCYVGGKALCPDVCYV-NH2 (not fully specified (bridges); cysteine pairing not given here) [IGE128]	240 nM
VTCPRWCYVGGKALCPDVCYV-NH2 (cysteine pairing not given here) [IGE126]	380 nM
VQCPHFCYVGGKALCPDVCYV-NH2 (not fully specified (bridges); cysteine pairing not given here) [IGE122]	170 nM
VQCPHFCYVGGKALCPDKCYT-NH2 (cysteine pairing not given here) [IGE148]	94 nM
VQCPHFCYVGGKALCPDKCYV-NH2 (cysteine pairing not given here) [IGE147]	158 nM
VQCPHFCYVGGKALCPDPCYV-NH2 (cysteine pairing not given here) [IGE149]	166 nM
VQCPHFCYVGGKALCPDVCDV-NH2 (not fully specified (bridges); cysteine pairing not given here) [IGE150]	1230 nM
ALCPAVCYV-NH2 (disulfide 3-7 (inferred); also: synthesized as monomer, spontaneously formed a dimer) [IGE037]	251000 nM
ALCPAVCYV-NH2 (also: antiparallel disulfide-linked homodimer, interchain C3-C7' and C7-C3', also called antiparallel covalent dimer of IGE037) [IGE089]	64000 nM
VQCPHFCYELDYELCPDVCYV-NH2 (not fully specified (bridges); cysteine pairing not given here) [IGE134]	32 nM
VQCPHFCYELDYELCPWVCYV-NH2 (not fully specified (bridges); cysteine pairing not given here) [IGE175]	57 nM
VQCPHFCYELDYELCPDKCYT-NH2 (not fully specified (bridges); cysteine pairing not given here) [IGE173]	61 nM
VQCPDFCYELDYELCPDVCYV-NH2 (not fully specified (bridges); cysteine pairing not given here) [IGE190]	58 nM
VQCPHFCYELDYELCPWKCYT-NH2 (not fully specified (bridges); cysteine pairing not given here) [IGE174]	172 nM
VQCPHFCYVGGKVQCPHFCYV-NH2 (not fully specified (bridges); cysteine pairing not given here) [IGE131]	2300 nM
ALCPAVCYVGGKALCPDVCYV-NH2 (disulfide 7-15, 3-19; N-terminus assumed; SMILES CC(C)C[C@H](NC(=O)[C@H](C)N)C(=O)N[C@H]1CSSC[C@@H](C(=O)N[C@@H](Cc2ccc(O)cc2)C(=O)N[C@H](C(N)=O)C(C)C)NC(=O)[C@H](C(C)C)NC(=O)[C@H](CC(=O)O)NC(=O)[C@@H]2CCCN2C(=O)[C@@H]2CSSC[C@H](NC(=O)[C@H](C(C)C)NC(=O)[C@H](C)NC(=O)[C@@H]3CCCN3C1=O)C(=O)N[C@@H](Cc1ccc(O)cc1)C(=O)N[C@@H](C(C)C)C(=O)NCC(=O)NCC(=O)N[C@@H](CCCCN)C(=O)N[C@@H](C)C(=O)N[C@@H](CC(C)C)C(=O)N2) [IGE083]	1100 nM
VVCPNMCYVGGKALCPDVCYV-NH2 (not fully specified (bridges); cysteine pairing not given here) [IGE121]	340 nM
IVCPRLCYVGGKALCPDVCYV-NH2 (not fully specified (bridges); cysteine pairing not given here) [IGE120]	290 nM
IVCARLCYVGGKALCPDVCYV-NH2 (not fully specified (bridges); cysteine pairing not given here) [IGE127]	13000 nM
ALCPDVCYVGGKVQCPHFCYV-NH2 (disulfide 7-15, 3-19; N-terminus assumed; SMILES CC(C)C[C@H](NC(=O)[C@H](C)N)C(=O)N[C@H]1CSSC[C@@H](C(=O)N[C@@H](Cc2ccc(O)cc2)C(=O)N[C@H](C(N)=O)C(C)C)NC(=O)[C@H](Cc2ccccc2)NC(=O)[C@H](Cc2c[nH]cn2)NC(=O)[C@@H]2CCCN2C(=O)[C@@H]2CSSC[C@H](NC(=O)[C@H](C(C)C)NC(=O)[C@H](CC(=O)O)NC(=O)[C@@H]3CCCN3C1=O)C(=O)N[C@@H](Cc1ccc(O)cc1)C(=O)N[C@@H](C(C)C)C(=O)NCC(=O)NCC(=O)N[C@@H](CCCCN)C(=O)N[C@@H](C(C)C)C(=O)N[C@@H](CCC(N)=O)C(=O)N2) [IGE130]	250 nM
IVCPRLCYELDYELCPDVCYV-NH2 (cysteine pairing not given here) [IGE141]	131 nM
VKCPSLCYVGGKALCPDVCYV-NH2 (not fully specified (bridges); cysteine pairing not given here) [IGE123]	180 nM
VPCPELCYVGGKALCPDVCYV-NH2 (not fully specified (bridges); cysteine pairing not given here) [IGE124]	890 nM
